Experimental findings from US20220098305A1 (Hoffmann-La Roche, published 2022) are described below.

Where two headings read alike, the source gives them in different places.

Test [1] deals with T1, cynomolgus ICOS (cynomolgus, UniProt Q9Y6W8 21-195 (human entry)).
T1 chain: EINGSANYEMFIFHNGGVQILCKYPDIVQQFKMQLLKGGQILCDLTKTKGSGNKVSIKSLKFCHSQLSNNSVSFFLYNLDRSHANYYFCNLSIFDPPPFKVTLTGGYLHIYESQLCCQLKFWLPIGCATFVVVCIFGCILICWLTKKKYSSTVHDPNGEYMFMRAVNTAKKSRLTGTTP
The test is described as follows: flow cytometry, activated cynomolgus PBMCs, CD4+ subset. The method, then:
(§1) Briefly, suspension cells were harvested, counted, checked for viability and re-suspended at 1 million cells per ml in FACS buffer (PBS with 0.1% BSA). […] The staining was fixed for 20 min at 4° C. in the dark, using 75 μl of 1% PFA in FACS buffer per well.
(§2) Briefly, cynomolgus PBMCs were activated for 48 hours using Dynabeads™ Human T-Activator CD3/CD28 (Thermo Fischer #11131D) according to manufacturer instruction and stored in RPMI1640 medium containing 10% FCS and 1% Glutamax (Gibco 35050061) at 37° C., in a humidified incubator until subsequent binding experiment was performed, as described above.
A general note: Flow cytometry measures light scatter and fluorescence of single cells or particles in a stream.

In test [2] the target is T1, cynomolgus ICOS. The test is described as follows: flow cytometry on cynomolgus PBMCs activated 48 h with CD3/CD28 beads, CD4+ subset, MFI. The method, then: as §1, §2
The target in test [3] is T2, human ICOS (human, UniProt Q9Y6W8 21-199).
T2 construct: The cell that carries it is named under assay; also called huICOS; CD278
T2 sequence: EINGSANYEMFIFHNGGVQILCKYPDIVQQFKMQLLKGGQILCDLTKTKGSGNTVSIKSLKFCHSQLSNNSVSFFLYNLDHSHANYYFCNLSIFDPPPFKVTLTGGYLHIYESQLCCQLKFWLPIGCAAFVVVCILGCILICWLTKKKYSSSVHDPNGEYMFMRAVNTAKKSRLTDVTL
The experiment in a line: flow cytometry on CHO cells expressing human ICOS, PE-labelled secondary antibody; y axis printed LOG10(MFI PE).

Test [4] deals with T1, cynomolgus ICOS. The test is described as follows: flow cytometry, activated cynomolgus PBMCs, CD8+ subset. The method, then:
as §1, §2

For test [5], the target named is T3, human FAP (human, UniProt Q12884 1-760).
T3 construct: also called hu FAP
The experiment in a line: flow cytometry, NIH/3T3-huFAP clone 19 cells.

The target in test [6] is T2, human ICOS. The test is described as follows: cell-based or functional assay.
Test [7] concerns the target T3, human FAP. The test is described as follows: flow cytometry on NIH/3T3-huFAP clone 19 cells, geometric MFI.
For test [8], the target named is T2, human ICOS. The test is described as follows: flow cytometry, CHO cells expressing human ICOS. The method, then:
as §1
(§3) Fluorescence was analyzed by FACS using a FACS Fortessa (Software FACS Diva). Binding curves and EC₅₀ values were obtained using GraphPadPrism 7.

For test [9], the target named is T2, human ICOS. The experiment in a line: flow cytometry, CHO cells expressing human ICOS. The source holds these as a separate data set.
Test [10] deals with T2, human ICOS. The test is described as follows: flow cytometry, SR cells.
Test [11] deals with T1, cynomolgus ICOS. The test is described as follows: flow cytometry on cynomolgus PBMCs activated 48 h with CD3/CD28 beads, CD8+ subset, MFI. The method, then: as §1, §2
Test [12] addresses T3, human FAP. The test is described as follows: flow cytometry, NIH/3T3-huFAP clone 19 cells. As to the method:
as §1, §3
This is another data set of the same source.

The target in test [13] is T2, human ICOS. The test is described as follows: flow cytometry, pre-activated human PBMCs, CD4+ subset. As to the method:
as §1
(§4) Briefly, Peripheral blood mononuclear cells (PBMCs) were prepared by Histopaque (Sigma-Aldrich, Cat No. 10771-500ML Histopaque-1077) density centrifugation of enriched lymphocyte preparations of heparinized blood obtained from a Buffy Coat (“Blutspende Zürich”). The blood was diluted 1:2 with sterile DPBS and layered over Histopaque gradient (Sigma, #H8889). After centrifugation (450×g, 30 minutes, room temperature), the plasma above the PBMC-containing interphase was discarded and PBMCs transferred in a new falcon tube subsequently filled with 50 ml of PBS. The mixture was centrifuged (400×g, 10 minutes, room temperature), the supernatant discarded and the PBMC pellet washed twice with sterile PBS (centrifugation steps 350×g, 10 minutes). The resulting PBMC population was counted automatically (Cedex HiRes) and stored in RPMI1640 medium containing 10% FCS and 1% Glutamax (Gibco 35050061). […] After incubation the PBMCs were used for a subsequent binding experiment, as described above.

Test [14] addresses T4, murine FAP (murine, UniProt P97321 26-761, limits assumed).
T4 construct: also called mouse FAP
The experiment in a line: flow cytometry, % positive cells; cells bearing murine FAP not given.

For test [15], the target named is T3, human FAP. The test is described as follows: flow cytometry, NIH/3T3-huFAP clone 19 cells. The source holds these as a separate data set.
Test [16] addresses T4, murine FAP. The test is described as follows: flow cytometry, cells carrying murine FAP not told.
For test [17], the target named is T3, human FAP. The test is described as follows: flow cytometry on NIH/3T3-huFAP clone 19 cells, AF647-labelled anti-human Fc secondary antibody, MFI. As to the method:
as §1, §3

Another test has as its target T5, murine ICOS (murine, UniProt Q9WVS0 21-200).
T5 sequence: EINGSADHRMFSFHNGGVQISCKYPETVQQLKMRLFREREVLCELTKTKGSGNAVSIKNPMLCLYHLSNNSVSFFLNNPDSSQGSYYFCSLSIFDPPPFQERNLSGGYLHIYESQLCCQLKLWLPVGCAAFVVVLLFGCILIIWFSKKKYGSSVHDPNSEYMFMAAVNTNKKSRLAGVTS
The test is described as follows: flow cytometry, % positive cells; murine ICOS on recombinant CHO cells according to the legend, on pre-activated murine splenocytes according to the example.

Test [18] concerns the target T1, cynomolgus ICOS. The test is described as follows: flow cytometry on cynomolgus PBMCs activated 48 h with CD3/CD28 beads, CD4+ subset, MFI.
For test [19], the target named is T3, human FAP. The test is described as follows: flow cytometry on NIH/3T3-huFAP clone 19 cells, MFI on single cells. As to the method:
as §1

The target of test [20] is T2, human ICOS. The experiment in a line: flow cytometry, pre-activated human PBMCs, CD8+ subset. The method, then: as §1, §4

B1: Molecule 15, bispecific 2+1 anti-ICOS (009v1)/anti-FAP (4B9) huIgG1 P329GLALA kih (bispecific antibody)
heavy 1: EVRLDETGGGVVQPGRPMELSCVASGFTFSDYWMNWVRQSPEKGLEWVAQIRNKPYNYETYYSDSVKGRFTISRDDSKSRVYLQMNNLRAEDMGIYYCTWPRLRSSDWHFDVWGAGTTVTVSSASTKGPSVFPLAPSSKSTSGGTAALGCLVKDYFPEPVTVSWNSGALTSGVHTFPAVLQSSGLYSLSSVVTVPSSSLGTQTYICNVNHKPSNTKVDKKVEPKSCDKTHTCPPCPAPEAAGGPSVFLFPPKPKDTLMISRTPEVTCVVVDVSHEDPEVKFNWYVDGVEVHNAKTKPREEQYNSTYRVVSVLTVLHQDWLNGKEYKCKVSNKALGAPIEKTISKAKGQPREPQVCTLPPSRDELTKNQVSLSCAVKGFYPSDIAVEWESNGQPENNYKTTPPVLDSDGSFFLVSKLTVDKSRWQQGNVFSCSVMHEALHNHYTQKSLSLSPGGGGGSGGGGSGGGGSGGGGSEIVLTQSPGTLSLSPGERATLSCRASQSVTSSYLAWYQQKPGQAPRLLINVGSRRATGIPDRFSGSGSGTDFTLTISRLEPEDFAVYYCQQGIMLPPTFGQGTKVEIK
heavy 2: not shown
light: AIQMTQSPSSLSASLGGEVTITCKASQDINKNIAWYQHKPGRGPRLLIWYTSTLQTGIPSRFSGSGSGRDYSFTISNLEPEDFATYYCLQFDNLYTFGSGTKLEIRRTVAAPSVFIFPPSDEQLKSGTASVVCLLNNFYPREAKVQWKVDNALQSGNSQESVTEQDSKDSTYSLSSTLTLSKADYEKHKVYACEVTHQGLSSPVTKSFNRGEC
B1: the EC50 in the test with cynomolgus ICOS [1] worked out at 2.09 nM; with cynomolgus ICOS [4], 3.5 nM; with human FAP [5], 0.00198 nM; with human ICOS [8], 1.12 nM; with human ICOS [9], 0.516 nM; with human ICOS [10] it was 0.00139 nM. This molecule had an EC50 with human FAP [12] of 2.97 nM. Besides, the “EC50 (read off the curve)” value with cynomolgus ICOS [2] was ~2 nM; with human ICOS [3] it was ~0.5 nM; in the test with human FAP [7], ~2 nM; in the test with cynomolgus ICOS [11] it was ~3 nM. For the same molecule, in the test with human ICOS [6], the “EC50 of activation of Jurkat-NFAT reporter cell line” value worked out at 4.44 nM. Further, the “Max (Counts/sec), Jurkat-NFAT reporter cell line” value with human ICOS [6] was 39700 Counts/sec. For the same molecule, the “Max (Log10(MFI))” value with human ICOS [9] is 3.06 Log10(MFI).

B2: Molecule 10, bispecific monovalent anti-ICOS (1167)/anti-FAP (4B9) huIgG1 P329GLALA kih antibody (1+1) (bispecific antibody)
heavy 1: EIVLTQSPGTLSLSPGERATLSCRASQSVTSSYLAWYQQKPGQAPRLLINVGSRRATGIPDRFSGSGSGTDFTLTISRLEPEDFAVYYCQQGIMLPPTFGQGTKVEIKSSASTKGPSVFPLAPSSKSTSGGTAALGCLVKDYFPEPVTVSWNSGALTSGVHTFPAVLQSSGLYSLSSVVTVPSSSLGTQTYICNVNHKPSNTKVDKKVEPKSCDKTHTCPPCPAPEAAGGPSVFLFPPKPKDTLMISRTPEVTCVVVDVSHEDPEVKFNWYVDGVEVHNAKTKPREEQYNSTYRVVSVLTVLHQDWLNGKEYKCKVSNKALGAPIEKTISKAKGQPREPQVCTLPPSRDELTKNQVSLSCAVKGFYPSDIAVEWESNGQPENNYKTTPPVLDSDGSFFLVSKLTVDKSRWQQGNVFSCSVMHEALHNHYTQKSLSLSP
light 1: EVQLLESGGGLVQPGGSLRLSCAASGFTFSSYAMSWVRQAPGKGLEWVSAIIGSGASTYYADSVKGRFTISRDNSKNTLYLQMNSLRAEDTAVYYCAKGWFGGFNYWGQGTLVTVSSASVAAPSVFIFPPSDEQLKSGTASVVCLLNNFYPREAKVQWKVDNALQSGNSQESVTEQDSKDSTYSLSSTLTLSKADYEKHKVYACEVTHQGLSSPVTKSFNRGEC
heavy 2: not shown
light 2: DIQMTQSPSSVSASVGDRVTITCRASQGINNFLAWYQQKPGKAPKLLIYDASSLQSGVPSRFAGSGSGTDFTLTISSLQPEDFATYYCQQYNFYPLTFGGGTMVEIKRTVAAPSVFIFPPSDRKLKSGTASVVCLLNNFYPREAKVQWKVDNALQSGNSQESVTEQDSKDSTYSLSSTLTLSKADYEKHKVYACEVTHQGLSSPVTKSFNRGEC
notes: CrossFab (VLCH1/VHCL) on the FAP arm; also called FAP-ICOS (1+1)
Regarding B2, the EC50 with human ICOS [13] was ~58 nM; in the test with human FAP [15], 1.54 nM; with murine FAP [16] it was 0.177 nM; with human ICOS [8], 41.7 nM; in the test with human FAP [12], 1.4 nM; in the test with human ICOS [20], ~124 nM. In addition, the “EC50 (read off the curve)” value with murine FAP [14] is ~0.2 nM; with human FAP [17], ~1 nM; in the test with human FAP [19], ~2 nM. Besides, the binding result in the test with murine ICOS and with cynomolgus ICOS [18] was “binds” in each case.

B3: Molecule 12, bispecific 2+1 anti-ICOS (1167)/anti-FAP (4B9) Crossfab-IgG P329G LALA (bispecific antibody)
heavy 1: EVRLLESGGGLVQPGGSLRLSCAASGFTFNTYAVHWVRQAPGKGLEWVSGIGGSGVRTYYADSVKGRLTISRDNSKNTLYLQMNSLRAEDTAIYFCAKDIYVADFTGYAFDIWGQGTMVTVSSASTKGPSVFPLAPSSKSTSGGTAALGCLVEDYFPEPVTVSWNSGALTSGVHTFPAVLQSSGLYSLSSVVTVPSSSLGTQTYICNVNHKPSNTKVDEKVEPKSCDKTHTCPPCPAPEAAGGPSVFLFPPKPKDTLMISRTPEVTCVVVDVSHEDPEVKFNWYVDGVEVHNAKTKPREEQYNSTYRVVSVLTVLHQDWLNGKEYKCKVSNKALGAPIEKTISKAKGQPREPQVCTLPPSRDELTKNQVSLSCAVKGFYPSDIAVEWESNGQPENNYKTTPPVLDSDGSFFLVSKLTVDKSRWQQGNVFSCSVMHEALHNHYTQKSLSLSP
light 1: DIQMTQSPSSVSASVGDRVTITCRASQGINNFLAWYQQKPGKAPKLLIYDASSLQSGVPSRFAGSGSGTDFTLTISSLQPEDFATYYCQQYNFYPLTFGGGTMVEIKRTVAAPSVFIFPPSDRKLKSGTASVVCLLNNFYPREAKVQWKVDNALQSGNSQESVTEQDSKDSTYSLSSTLTLSKADYEKHKVYACEVTHQGLSSPVTKSFNRGEC
heavy 2: not shown
light 2: EVQLLESGGGLVQPGGSLRLSCAASGFTFSSYAMSWVRQAPGKGLEWVSAIIGSGASTYYADSVKGRFTISRDNSKNTLYLQMNSLRAEDTAVYYCAKGWFGGFNYWGQGTLVTVSSASVAAPSVFIFPPSDEQLKSGTASVVCLLNNFYPREAKVQWKVDNALQSGNSQESVTEQDSKDSTYSLSSTLTLSKADYEKHKVYACEVTHQGLSSPVTKSFNRGEC
For B3, the figures for the EC50 with human ICOS [13], with human FAP [15] and with human ICOS [20] were ~12.6 nM, 1.82 nM and ~12.6 nM, respectively. Further, the 50% effective concentration (EC50 (read off the curve)) with human FAP [19] was ~2 nM.

What is called EC50 is the concentration giving half of the maximal effect. A low value points to an effect from little substance. One may read the EC50 (read off the curve) as the midpoint of the concentration-response curve.
